According to the supplement of paper PMC12042874:
± gives the uncertainty stated by the source.

Test: amyloid nucleation score (Sup35N fusion, yeast selection) (log enrichment); library NNK3; higher = more nucleation; inactive = no reads after selection
How it was run: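 The nucleation score equals the log enrichment of output over input reads from DiMSum, centred on the mode score of non-aggregating sequences. It was computed only for sequences with 100 or more input reads. The reads came from Illumina sequencing of plasmid inserts from psi-negative yeast expressing Sup35N fused to peptides of 20 random codons, induced with 100 μM copper sulfate for 24 hours and grown 7 days at 30°C without adenine and uracil.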

Substance	amyloid nucleation score
INLGLPVWSSIIFFNQSHNL	0.679 ± 0.14
INPYVL	inactive
INQRVYESWLAFV	inactive
INSLFLRERICRVRCPGFAS	inactive
INSTRMAFVWR	inactive
INTEGLVVIVGGRLYVILRV	inactive
INTGQMQSAYETNLVMRKLA	inactive
INTLYMTDRDRSLPESVQNL	inactive
INVVSEFGFGLQSTFRSDLV	inactive
INWIWAYI	inactive
INYGTRQCVVQCIIVVCSLG	2.17 ± 0.068
IPLLNVFSTRRSTCLEGSFT	inactive
IPLYHSWSVASLRLRNVVSW	inactive
IPVNYLASDMFN	inactive
IPVQFFVQIRSGIVHFWHER	1.81 ± 0.11
IPWCSPDGLVRRYHHKR	inactive
IQFPDQ	inactive
IQHFFQINNWLLDI	1.98 ± 0.07
IQLMLFIDCLSENCYVWLRY	inactive
IQMGGWIIMYSAGCGA	inactive
IQNANVRHYKRHRKFLTFIS	1.27 ± 0.11
IQSYK	inactive
IRAYTDNDSNLSEFGVFTLV	inactive

Substance	amyloid nucleation score
IRCRQNPGSHVIRYFCCRRS	inactive
IRDASWTKNLEFECLLFKPS	inactive
IRFSKTLRVIVHGEGNGKLC	inactive
IRGIVV	inactive
IRHVHLSRYSTRTDGNNQLD	inactive
IRLLATF	inactive
IRLVMETLGNLGIADKSMRV	inactive
IRNERRQGSCGIIISRNCYV	inactive
IRPSHYIYLRTN	inactive
IRQVLCCESLRLGSYMQINT	inactive
IRRHYAYCYNISTITVIAEI	inactive
IRSAVVV	-0.53 ± 1.8
IRSIM	inactive
IRSSREFYMSVYRTEAWVLE	inactive
IRSVKISSGYLLISYGDNNW	0.687 ± 0.18
IRTIIQKKMWACDHVFGSPA	inactive
IRYVFPFDIAHYFYLTKRYG	inactive
ISCSKLTR	inactive
ISCYLSDPVYS	-0.493 ± 1
ISFCYALCCNKMKRLLARCK	inactive
ISFSSES	inactive
ISHFTARFVSPPMQWLRTCF	inactive
ISIFWSIEGSNYLHLILHQG	inactive

Substance	amyloid nucleation score
ISLFFRICY	0.397 ± 0.27
ISLGVMCYYVPIPGCECTNI	inactive
ISMNLVLFMWFRRIGFLICL	inactive
ISNLRYRSWAYLVRSFCSVL	inactive
ISRFCYSSINRRGFLGNFVF	inactive
ISSVQISRAFPQHRTRRN	inactive
ISTDSVIHTTMEHSGE	inactive
ISTSLMDRRTKMLRQM	inactive
ISVAWWGCSTAYRRCKD	1.14 ± 0.12
ISVLERLGYMFVSRHMLLVW	inactive
ISVLVKWLVAERTSYWIMIP	inactive
ISVVFSGKNSLKEMRMKMAG	0.469 ± 0.21
ISVYHVLTHKL	1.49 ± 0.12
ISYVKFY	inactive
ITCANALLCDGSRFSM	0.741 ± 0.16
ITFNRSSSKNCSQKVKGRTL	inactive
ITIMSDQETSHVWLVDRTLP	0.298 ± 0.17
ITPTFYVARTKPMLTGGCPK	inactive
ITRDDTCSVYRLVK	inactive
ITRGTYRSPFSFNTRFESGS	inactive
ITSFFESHTVQVYAFYIRVF	inactive
ITVIGQLIALKQFSTLTRSI	inactive
ITVVQANMSVWSTARVDMLD	1.12 ± 0.16

Substance	amyloid nucleation score
ITWWLVIVAARSEGSCSPFQ	0.158 ± 0.27
ITYKGLIWMSQGHVACRSRM	-0.008 ± 0.7
IVCCQYQNYLNGSPLNIVLI	inactive
IVCHHRDYFLAYYYEMLHCR	inactive
IVCISLCLAAEKQPSGCEFG	2.01 ± 0.068
IVEDVGYLHLYRIQFGGVSE	inactive
IVHCWLMSGASVWTLQETPN	-0.105 ± 1.4
IVNFACCVWSLYSSREFNML	3.22 ± 0.07
IVPAWLFGV	inactive
IVQAFVSVLSY	inactive
IVRHVVYVSCGIQYCDHFWH	inactive
IVSTSYNWDDACYDRTLQGG	inactive
IVSVQVVLLYQM	1.12 ± 0.14
IVVEQLHDWDIPMKGTTFRS	inactive
IVVLWV	-0.341 ± 0.39
IVVQSNHAYTLVRTDSLVWM	1.17 ± 0.11
IVVRPR	1.24 ± 0.17
IVYFPLILGAIIYWMSETHL	inactive
IWRDLGRLIQLFWNEIYHVN	inactive
IWRLLGSWVSVTMDIYHWSS	inactive
IWSNTYPSIRSLWMSFGVVI	inactive
IWVLSCRLISRTRFICDRRM	0.057 ± 0.93
IWWNIYCFTVTSSVD	2.21 ± 0.095

Substance	amyloid nucleation score
IYGLLVDRRAVIFFEYMHLV	inactive
IYGTANSKFSCIIYR	2.09 ± 0.091
IYLASSLNRILISEQSILPG	inactive
IYLDFNASWLACNKLICLRN	1.01 ± 0.13
IYLKYSSYRNSLIILAVD	inactive
IYLNFNKILLMILQIQLWGN	-0.19 ± 0.64
IYMSRKSLVMDVWQRHRDKE	inactive
IYNTGHSSRYLRTPVFAWSE	inactive
IYPMLW	-0.428 ± 0.62
IYQWTEFCGRIFQSCRMVLC	inactive
IYRGHVRQKELFCHRREIQW	inactive
IYSIVFFSRSLTVRVFGAHY	inactive
IYSLYRCPFAVCLSSNWSCF	1.78 ± 0.11
IYSRVSRLIH	inactive
IYSVVGCWKPSSVSDMAGLL	inactive
IYSWTGLSTTLKFLGMSLLL	-0.218 ± 0.71
IYTNWYEFRV	inactive
IYVRAFRWFMNKVTSTAWTI	inactive
IYVTIEFASIVCSCWESLDR	-0.091 ± 0.8
IYYHIETSSAVASWYWRCAT	inactive
IYYSRHEYSDCV	inactive
KAPRMVLLRSGIVMLAHSEN	inactive
KASHWV	inactive

Substance	amyloid nucleation score
KASLPNR	inactive
KATLRCCEPYVNDMVVANLK	inactive
KCAQEYGEVLS	-0.591 ± 0.8
KCDEDCYAFDVYLSMGYDVS	inactive
KCIQWTGRDAYFEICYKQLD	1.12 ± 0.11
KCMAI	inactive
KCMCNLRSMFASCLYTCVVI	inactive
KDFIMHNILYMRRWAFTPLA	inactive
KDLRYTVFEVWDKYWPLTGL	inactive
KDPEVQVRK	inactive
KFGCSYTNYSITSPDNPSC	inactive
KFGWWLFDSVSDTNLWYRRS	inactive
KFKSRGRSTMLLVFNIVWRV	-0.476 ± 0.42
KFNVFPIHGALWTCSVSAYH	inactive
KFPWT	inactive
KFRWVFYFGSAMEVREGSEF	-0.141 ± 0.45
KFSCSDNPE	inactive
KFVLETFCHSKPRLVLVNHD	inactive
KGGTLRRLTLSGTGTSQPSE	inactive
KGHDAHVAVRVFTGGGLV	inactive
KGSHFFAIFGW	inactive
KGYSRYQSVHRSNRELYNQA	-0.563 ± 0.64
KHMSHRCILMLSPYSDRNIM	inactive

Substance	amyloid nucleation score
KICSIVPLYIRGGHSLGSVV	inactive
KIFRIYICDCELYHTNGMWA	1.56 ± 0.1
KIFVSFNKSKLEVHPPLKVI	inactive
KIGQSFSV	inactive
KIGSLVKECCGLPVYYALLK	inactive
KISMSRVVFDNSSTGTIEGQ	inactive
KIWYLSIYVYFYVYYLDGSL	inactive
KKQGSWRKNITISRVCVVLG	inactive
KKYFSVRWVTFWISRV	inactive
KLFWMIVCGVLNLNSNNYGG	2.57 ± 0.084
KLGKESRSFLMTTRNVDRRF	1.43 ± 0.11
KLHPTYLCNQNPRELWLITY	inactive
KLICKERYVVYSVILVLKEL	inactive
KLILFLTRVFRSFQVSWRQF	inactive
KLMLHNEYMPGVQLLLNQYK	0.436 ± 0.46
KLSLMAVNLSWIYFCL	0.182 ± 0.27
KLSWTPRLLNSYSLLEYVQD	inactive
KLYLLLLYFLDMTVFWFVAV	inactive
KLYNLFWNVETMVERLLLVA	inactive
KMQCPNYACGCKDCVYTNFY	inactive
